Results: US11814439

Columns and labels:
[1] = molecular target: C1q Receptor in the complement system (rabbit serum as the source of complement) (rabbit); assay: cell-based or functional assay
[2] = molecular target: FcγIIIA Receptor on the effector cells (CD16 / FcγRIII) (human) (UniProt P08637); assay: cell-based or functional assay
[3] = molecular target: CD20 on Jeko-1, Raji and Daudi cells (human) (UniProt P11836); assay: FACS on Raji cells, PE anti-human secondary antibody
[4] = molecular target: CD20 on Jeko-1, Raji and Daudi cells (human) (UniProt P11836); assay: FACS on Daudi cells, PE anti-human secondary antibody

FcγIIIA Receptor on the effector cells (CD16 / FcγRIII) (human), sequence (P08637 17-254): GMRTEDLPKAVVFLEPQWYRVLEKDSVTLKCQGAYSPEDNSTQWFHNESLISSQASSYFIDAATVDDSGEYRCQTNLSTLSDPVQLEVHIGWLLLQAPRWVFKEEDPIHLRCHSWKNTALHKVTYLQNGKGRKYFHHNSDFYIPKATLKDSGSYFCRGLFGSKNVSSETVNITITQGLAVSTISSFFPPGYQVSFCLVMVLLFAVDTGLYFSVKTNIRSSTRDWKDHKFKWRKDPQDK
CD20 on Jeko-1, Raji and Daudi cells (human), sequence (P11836 whole entry): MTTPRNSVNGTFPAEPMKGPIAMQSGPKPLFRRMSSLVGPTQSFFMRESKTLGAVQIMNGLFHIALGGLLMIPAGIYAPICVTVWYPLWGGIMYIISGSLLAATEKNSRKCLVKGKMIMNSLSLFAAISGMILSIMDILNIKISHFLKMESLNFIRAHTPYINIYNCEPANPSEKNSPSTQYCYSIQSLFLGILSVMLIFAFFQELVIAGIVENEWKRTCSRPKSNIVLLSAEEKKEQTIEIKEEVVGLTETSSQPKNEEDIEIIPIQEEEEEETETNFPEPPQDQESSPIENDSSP

Row | CDC EC50 (Jeko-1 cells, rabbit complement) [1] [µg/mL] | EC50 of ADCC assay Using Primary NK Cells [2] [µg/mL] | EC50 [3] [ng/mL] | EC50 [4] [ng/mL] | Substance
1 | 0.353 | 500 | 0.00873 | 0.000793 | ARZERRA (ofatumumab) (antibody)
2 | – | 19 | – | – | GAZYVA (obinutuzumab) (antibody)
3 | 1.21 | – | – | – | OCREVUS (ocrelizumab) (antibody)
4 | 0.245 | 1390 | – | – | RITUXAN (rituximab) (antibody)
